From PMC8211825, “Molecular mechanism of calcium induced trimerization of C1q-like domain of otolin-1 from human and zebrafish” (Scientific Reports, 2021)

Target: the molecule itself
Experiment: AUC; sedimentation velocity, c(s) analysis in SEDFIT; sevenfold (hOtolC1q forms) or 14-fold (dOtolC1q forms) molar excess of TbCl3; protein 0.20-0.25 mg/mL; self-association of the gC1q domain into trimers

Protein | stoichiometry N
hOtolC1q E417A (domain or fragment, human, UniProt A6NHN0 338-473, looked up, gC1q (C1q-like) domain of human otolin-1, UniProt A6NHN0, with E417A) ARVPRSAFSAGLSKPFPPPNIPIKFEKILYNDQGNYSPVTGKFNCSIPGTYVFSYHITVRGRPARISLVAQNKKQFKSRATLYGQEIDQASLLVILKLSAGDQVWLEVSKDWNGVYVSAEDDSIFTGFLLYPEETS | 3
hOtolC1q E417A D425A (domain or fragment, human, UniProt A6NHN0 338-473, looked up, gC1q (C1q-like) domain of human otolin-1, UniProt A6NHN0, with E417A and D425A; also called double mutant) ARVPRSAFSAGLSKPFPPPNIPIKFEKILYNDQGNYSPVTGKFNCSIPGTYVFSYHITVRGRPARISLVAQNKKQFKSRATLYGQEIAQASLLVILKLSAGDQVWLEVSKDWNGVYVSAEDDSIFTGFLLYPEETS | 3
hOtolC1q D425A (domain or fragment, human, UniProt A6NHN0 338-473, looked up, gC1q (C1q-like) domain of human otolin-1, UniProt A6NHN0, with D425A) ARVPRSAFSAGLSKPFPPPNIPIKFEKILYNDQGNYSPVTGKFNCSIPGTYVFSYHITVRGRPARISLVAQNKKQFKSRETLYGQEIAQASLLVILKLSAGDQVWLEVSKDWNGVYVSAEDDSIFTGFLLYPEETS | 3
dOtolC1q D432A (domain or fragment, zebrafish (Danio rerio), UniProt A5PN28 351-488, looked up, gC1q (C1q-like) domain of zebrafish otolin-1, UniProt A5PN28, with D432A; Same construct as m6 with the mutation) AVQKRSAFSVGLFPSRSFPPPGLPIRFDKIIYNEEAHWDPNASKFNCTHGGVYVFSYYITVRNRPLRAALVVNGIRKLRTRASLYGQDIDQASNMAVLRLSSGDQVWLETLRDWNGVYSSSEDDSTFSGFLLYADATK | 3
dOtolC1q D432A D440A (domain or fragment, zebrafish (Danio rerio), UniProt A5PN28 351-488, looked up, gC1q (C1q-like) domain of zebrafish otolin-1, UniProt A5PN28, with D432A and D440A; Same construct as m6 with the two mutations; also called double mutant) AVQKRSAFSVGLFPSRSFPPPGLPIRFDKIIYNEEAHWDPNASKFNCTHGGVYVFSYYITVRNRPLRAALVVNGIRKLRTRASLYGQDIAQASNMAVLRLSSGDQVWLETLRDWNGVYSSSEDDSTFSGFLLYADATK | 3
dOtolC1q D440A (domain or fragment, zebrafish (Danio rerio), UniProt A5PN28 351-488, looked up, gC1q (C1q-like) domain of zebrafish otolin-1, UniProt A5PN28, with D440A; Same construct as m6 with the mutation) AVQKRSAFSVGLFPSRSFPPPGLPIRFDKIIYNEEAHWDPNASKFNCTHGGVYVFSYYITVRNRPLRAALVVNGIRKLRTRDSLYGQDIAQASNMAVLRLSSGDQVWLETLRDWNGVYSSSEDDSTFSGFLLYADATK | 3
